Experimental data as given in the supplement of paper PMC7877785.
± gives the uncertainty stated by the source.

Assay: self-splicing fitness, log relative to wild type (ln ratio); higher = more splicing; Tetrahymena group I intron in knt gene, E. coli kanamycin selection, DiMSum; sequences stand for … in CUCUCU…GGAGGGAAAAGUUAUCAGGCAUGCACCUGGUAGCUAGUCUUUAAACCAAUAGAUUGCAUCGGUUUAAAAGGCAAGACCGUCAAAUUGCGGGAAAGGGGUCAACAGCCGUUCAGUACCAAGUCUCAGGGGAAACUUUGAGAUGGCCUUGCAAAGGGUAUGGUAAUAAGCUGACGGACAUGGUCCUAACCACGCAGCCAAGUCCUAAGUCAACAGAUCUUCUGUUGAUAUGGAUGCAGUUCACAGACUAAAUGUCGGUCGGGGAAGAUGUAUUCUUCUCAUAAGAUAUAGUCGGACCUCUCCUUAAUGGGAGCUAGCGGAUGAAGUGAUGCAACACUGGAGCCGCUGGGAACUAAUUUGUAUGCGAAAGUAUAUUGAUUAGUUUUGGAGUACUCGUGGUCG
Procedure, shortened: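 Fitness was computed with DiMSum as the error-weighted combination of replicate fold changes, kanamycin versus none, each normalised to wild type. The library randomised all eight intron nucleotides of the P1ex region, with the intron placed in the knt kanamycin-resistance gene on pET-22b(+) in E. coli BL21(DE3). Six replicate transformations were grown overnight at 37°C or 30°C on LB agar with or without 25 μg/mL kanamycin, plus 100 μg/mL carbenicillin, 50 μM IPTG and 0.2% rhamnose. Pooled colonies were amplicon-sequenced on an Illumina HiSeq 2500.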

Sequence	self-splicing fitness (ln) (30 °C)	self-splicing fitness (ln) (37 °C)
GGUGAGCAAUAUUACGAUAG	-0.576 ± 0.23	-2.81 ± 0.34
AUGGAGCAAUAUUACGUCCG	-1.29 ± 0.12	-1.06 ± 0.13
CAUCAGCAAUAUUACGGAAA	-2.66 ± 0.23	-0.167 ± 0.14
CUUCAGCAAUAUUACGAUGU	-3.67 ± 0.21	-2.07 ± 0.2
GUCCAGCAAUAUUACGCUCU	-0.327 ± 0.1	0.137 ± 0.12
GCUGAGCAAUAUUACGGUAA	-3.07 ± 0.29	-2.44 ± 0.23
UGUUAGCAAUAUUACGCGUA	-0.809 ± 0.12	-0.454 ± 0.13
AGUGAGCAAUAUUACGGGGA	-3.7 ± 0.25	-2 ± 0.21
UUGCAGCAAUAUUACGGACC	-2.34 ± 0.27	-2 ± 0.26
UCGCAGCAAUAUUACGGUGA	-4.44 ± 0.46	-2.45 ± 0.15
UACAAGCAAUAUUACGAGAU	-3.65 ± 0.28	-3.07 ± 0.28
UGCGAGCAAUAUUACGUAGC	-2.36 ± 0.27	-2.05 ± 0.38
GCGAAGCAAUAUUACGCCCG	-2.36 ± 0.31	-1.68 ± 0.48
ACCAAGCAAUAUUACGUUCC	-3.95 ± 0.16	-1.37 ± 0.12
GAGAAGCAAUAUUACGGGGG		-1.8 ± 0.47
GUGGAGCAAUAUUACGGCAA		-1.55 ± 0.35
GCAGAGCAAUAUUACGUUUU	-3.54 ± 0.17	-3.12 ± 0.2
UACCAGCAAUAUUACGUUCC	-2.79 ± 0.19	-1.77 ± 0.22
GAGGAGCAAUAUUACGACUA	-1.32 ± 0.43	-1.47 ± 0.37
AGGGAGCAAUAUUACGCAAU		-1.7 ± 0.47
AGGGAGCAAUAUUACGGCGG	-2.87 ± 0.21	-2.73 ± 0.3
CUGUAGCAAUAUUACGCUUA	-3.24 ± 0.37	-3.24 ± 0.43
GAUCAGCAAUAUUACGGCCC	-1.65 ± 0.21	-0.61 ± 0.2
GUUGAGCAAUAUUACGAAAG	-2.93 ± 0.38	0.317 ± 0.17
GCAAAGCAAUAUUACGAUUC	-1.26 ± 0.082	-0.245 ± 0.1
CCGCAGCAAUAUUACGGCCU	-3.67 ± 0.42	-2.88 ± 0.24

Sequence	self-splicing fitness (ln) (30 °C)	self-splicing fitness (ln) (37 °C)
CUGGAGCAAUAUUACGGUGC	-3.49 ± 0.48	
GUUUAGCAAUAUUACGCUUU	-2.38 ± 0.25	-0.513 ± 0.22
CGGAAGCAAUAUUACGUAGA	-3.45 ± 0.2	-1.82 ± 0.19
GUAAAGCAAUAUUACGCUCU	-2.11 ± 0.19	-0.206 ± 0.24
AUGCAGCAAUAUUACGCGAU	-3.67 ± 0.3	-1.92 ± 0.25
AUAGAGCAAUAUUACGAGGA	-2.21 ± 0.23	-2.16 ± 0.27
UAUAAGCAAUAUUACGCCAU	-1.19 ± 0.23	-2.11 ± 0.28
AUAGAGCAAUAUUACGUGAG	-3.77 ± 0.21	-2.42 ± 0.14
UAUUAGCAAUAUUACGGCUG	-0.432 ± 0.079	0.0834 ± 0.13
GAGUAGCAAUAUUACGUAAA		-0.672 ± 0.33
CAGCAGCAAUAUUACGGAUC	-3.6 ± 0.36	-1.37 ± 0.26
GGAAAGCAAUAUUACGCGCA	-0.291 ± 0.16	-0.139 ± 0.17
GAGAAGCAAUAUUACGGUAG	-3.75 ± 0.29	-2.68 ± 0.24
ACGCAGCAAUAUUACGCCCA	-0.672 ± 0.096	-0.153 ± 0.12
GCCUAGCAAUAUUACGUCCG	-3 ± 0.42	-2.03 ± 0.26
CAUGAGCAAUAUUACGCAUA	-2.29 ± 0.26	-1.78 ± 0.23
UCGUAGCAAUAUUACGACUU	-2.7 ± 0.22	-0.781 ± 0.17
AACGAGCAAUAUUACGGUGC	-3.15 ± 0.3	-2.69 ± 0.33
CAUAAGCAAUAUUACGUGGC		-1.86 ± 0.25
AACGAGCAAUAUUACGUUGG	-3.75 ± 0.24	-2.86 ± 0.25
GAAAAGCAAUAUUACGGUUA	-0.324 ± 0.062	-0.0141 ± 0.067
CUUCAGCAAUAUUACGGAAC	-2.45 ± 0.16	-2.12 ± 0.33
CCACAGCAAUAUUACGGCUG	-3.26 ± 0.15	-2.48 ± 0.15
CACCAGCAAUAUUACGCAAU	-4.25 ± 0.18	-4.19 ± 0.16
CACCAGCAAUAUUACGUAUU	-3.78 ± 0.15	-2.7 ± 0.16
AACGAGCAAUAUUACGAGUU	-3.48 ± 0.32	-2.1 ± 0.22

Sequence	self-splicing fitness (ln) (30 °C)	self-splicing fitness (ln) (37 °C)
ACCUAGCAAUAUUACGUGGU	-3.6 ± 0.14	-2.95 ± 0.16
GGCAAGCAAUAUUACGAUCG	-0.12 ± 0.054	-0.459 ± 0.066
GGUUAGCAAUAUUACGCCGU	-1.91 ± 0.22	-1.03 ± 0.21
UGACAGCAAUAUUACGGACU	-0.289 ± 0.063	0.203 ± 0.078
GUCCAGCAAUAUUACGUCAG	-4.93 ± 0.28	-2.16 ± 0.14
UGGCAGCAAUAUUACGGUGU	-3.4 ± 0.14	-2.41 ± 0.16
AACAAGCAAUAUUACGACUA	-0.0433 ± 0.095	0.555 ± 0.1
GCAAAGCAAUAUUACGUUGC	-3.51 ± 0.21	-1.88 ± 0.21
CCGAAGCAAUAUUACGGGAC	-4.02 ± 0.26	-3.3 ± 0.26
UACAAGCAAUAUUACGAAGU	-4.09 ± 0.42	-1.97 ± 0.24
UGUUAGCAAUAUUACGUGGA	-1.1 ± 0.22	-1.62 ± 0.15
AACUAGCAAUAUUACGUCGG	-3.57 ± 0.14	-2.26 ± 0.16
AUAUAGCAAUAUUACGACAG	-2.12 ± 0.19	-1.51 ± 0.27
AUAAAGCAAUAUUACGGACU	-0.0332 ± 0.073	0.654 ± 0.092
UGUCAGCAAUAUUACGGCUG	-2.9 ± 0.18	-0.843 ± 0.18
ACUUAGCAAUAUUACGUCGC		-1.22 ± 0.26
UCCUAGCAAUAUUACGAGAC	-2.09 ± 0.33	-1.71 ± 0.4
CGUGAGCAAUAUUACGGCGA	-2.31 ± 0.36	-0.845 ± 0.34
AAAAAGCAAUAUUACGUUUU	-2.42 ± 0.13	-2.39 ± 0.14
UCGUAGCAAUAUUACGUGAU	-2.2 ± 0.2	-1.48 ± 0.46
AUAUAGCAAUAUUACGCGUG	-1.1 ± 0.12	-0.528 ± 0.14
GGGAAGCAAUAUUACGGAAU		-1.67 ± 0.42
CAGAAGCAAUAUUACGACAU	-3.128 ± 0.02	-1.87 ± 0.034
UAUGAGCAAUAUUACGUCGC	-4.2 ± 0.39	-2.45 ± 0.39
AAAUAGCAAUAUUACGAAGG	-2.61 ± 0.21	-1.45 ± 0.27
